Non-standard residues stand in square brackets, D forms with d. No end group written: not given here. *: point of attachment. APBA‑IA = cysteine S-alkylated with APBA-IA: S-[2-oxo-2-({3-[4-acetyl-3-boronophenoxy]propyl}amino)ethyl]-L-cysteine (Cm), CC(=O)c1ccc(OCCCNC(=O)C*)cc1B(O)O; FAM = 5(6)-carboxyfluorescein, amide on Dap side-chain amine; Dap = NC[C@H](N)C(=O)O
Molecular target: T1, human serum albumin (human, UniProt P02768 25-609)
T1 construct: Reagent protein; also called HSA
Assay: fluorescence anisotropy, 500 nM peptide with varied protein concentrations in PBS pH 7.4
Method: FIGS. 16A-16B show further evaluation of the protein-enhanced bacterial staining by KAM5. (A) Flow cytometry comparison of HSA and BSA in enhancing KAM5 binding to S. aureus. (B) Assessing protein binding of KAM5 using fluorescence anisotropy, for which various concentrations of BSA or HSA were delivered to a 96-well plate (Corning 3603) in PBS (pH 7.4). Peptide was added at a final concentration of 500 nM and incubated for 1 hour. Anisotropy values were measured (Ex: 495 nm, Em: 532 nm) and plotted as an average of three trials with standard deviations. Fluorescein was used as a negative control. The results clearly show binding of KAM5 to these serum proteins.
The cell staining ability of KAM5 was also evaluated via fluorescence microscopy with a TAMRA labeled peptide. […] On the contrary, the BSA addition elicited stronger fluorescence staining of the bacteria, consistent with the flow cytometry results (FIG. 2D). […] To better understand this phenomenon, KAM5 was measured binding to these serum proteins via a fluorescence anisotropy experiment (FIGS. 16A-16B). KAM5 did show binding to both BSA and HAS at high protein concentrations, which is perhaps not surprising given these proteins display a large number of surface lysine residues.

T1 sequence (P02768 25-609 limits assumed): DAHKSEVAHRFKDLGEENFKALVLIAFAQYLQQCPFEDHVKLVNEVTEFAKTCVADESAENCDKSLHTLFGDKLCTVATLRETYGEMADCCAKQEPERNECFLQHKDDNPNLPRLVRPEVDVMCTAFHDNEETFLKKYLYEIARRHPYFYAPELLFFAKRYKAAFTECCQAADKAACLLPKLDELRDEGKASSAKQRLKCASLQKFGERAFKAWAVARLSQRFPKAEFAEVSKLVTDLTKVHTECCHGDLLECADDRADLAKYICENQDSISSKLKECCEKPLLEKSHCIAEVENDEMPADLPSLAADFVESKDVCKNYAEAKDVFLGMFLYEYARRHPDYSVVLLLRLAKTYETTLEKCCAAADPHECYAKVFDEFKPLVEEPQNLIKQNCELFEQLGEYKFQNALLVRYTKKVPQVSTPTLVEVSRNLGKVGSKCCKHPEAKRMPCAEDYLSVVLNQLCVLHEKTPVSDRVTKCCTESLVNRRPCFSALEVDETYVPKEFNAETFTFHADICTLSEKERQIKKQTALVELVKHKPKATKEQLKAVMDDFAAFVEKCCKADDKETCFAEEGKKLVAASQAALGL

## AC(APBA‑IA)VSPRSHEC(APBA‑IA)GGG[Dap](FAM)-NH2 [KAM5 (fluorescein/FAM labeled, APBA-IA modified): ACmVSPRSHECmGGGDap*]
  binding result: binds

— US20210198657A1 (TRUSTEES OF BOSTON COLLEGE, published 2021)
